For this test, the target named is T1, Scp1-WD40 (residues 567-1085) (S. pombe, UniProt O43043 567-1085).
T1 sequence (looked up): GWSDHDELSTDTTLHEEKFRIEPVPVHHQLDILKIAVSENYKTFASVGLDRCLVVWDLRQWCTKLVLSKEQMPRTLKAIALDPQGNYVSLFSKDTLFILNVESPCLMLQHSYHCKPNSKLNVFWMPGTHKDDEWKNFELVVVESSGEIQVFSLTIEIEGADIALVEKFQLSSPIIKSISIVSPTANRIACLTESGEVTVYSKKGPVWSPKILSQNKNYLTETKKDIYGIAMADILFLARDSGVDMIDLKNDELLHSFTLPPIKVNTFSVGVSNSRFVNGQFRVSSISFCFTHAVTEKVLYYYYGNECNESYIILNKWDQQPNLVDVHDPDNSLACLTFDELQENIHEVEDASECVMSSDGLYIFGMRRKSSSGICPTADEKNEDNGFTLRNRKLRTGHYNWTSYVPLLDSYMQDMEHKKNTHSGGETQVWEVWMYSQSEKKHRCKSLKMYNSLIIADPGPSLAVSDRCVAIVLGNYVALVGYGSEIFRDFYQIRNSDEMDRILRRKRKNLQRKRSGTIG
As to the kind of experiment: pull-down.

B1: MBP-fused regulatory domain of Sre1 (residues 628-900) (domain or fragment, S. pombe, UniProt Q9UUD1 628-900, looked up)
chain: QHSKSSVHAELRELPECTANLIENSHADDVFSPNMVERLWVLAKCTRDSAQMSDSIISSLSDVLVLSPLEVLASWYAADLLDALLMESLSRKVEISEIEEIISLCPKNSSIIRHALLAKLVLFPENTADSLNEVLAAYKNTLDLCSQDKRKQSSVLKINLSKLFTLHSCLSLALQRLGYGDVSKRMYQEIFVPDSDADITPLSFIISWTALNTFAPICTSPKENDVVEKMAMYVRTAIGTLKIQDLKLSRKLINSCIDIGSRLQEDLGYVSSA
B1: the binding result is “binds”.

(Values after PMC4387560 (Cell Research, 2015).)
